# Experimental data as given in publication PMC3605642 (The Journal of Biological Chemistry, 2013).
# Like-named read-outs stand apart in the source and are kept apart here.
# T1: vinculin domain 1 (Vd1; residues 1–258) (chicken, UniProt P12003 1-258)
# T1 sequence (looked up): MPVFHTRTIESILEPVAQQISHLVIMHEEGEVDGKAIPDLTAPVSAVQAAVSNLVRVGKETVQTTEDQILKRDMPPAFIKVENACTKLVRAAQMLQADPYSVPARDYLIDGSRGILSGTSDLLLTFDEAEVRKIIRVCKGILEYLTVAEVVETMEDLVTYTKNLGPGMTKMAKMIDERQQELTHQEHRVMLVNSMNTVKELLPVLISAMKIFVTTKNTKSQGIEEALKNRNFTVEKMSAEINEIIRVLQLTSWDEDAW
# B1: talin R3 rod domain (residues 787–911) (domain or fragment, mouse, UniProt P26039 787-911, looked up)
# chain: AHATGAGPAGRYDQATDTILTVTENIFSSMGDAGEMVRQARILAQATSDLVNAIKADAEGESDLENSRKLLSAAKILADATAKMVEAAKGAAAHPDSEEQQQRLREAAEGLRMATNAAAQNAIKK
# B2: talin R3 IVVI mutant (T809I/T833V/T867V/T901I) (domain or fragment, mouse, UniProt P26039 787-911, looked up)
# chain: AHATGAGPAGRYDQATDTILTVIENIFSSMGDAGEMVRQARILAQAVSDLVNAIKADAEGESDLENSRKLLSAAKILADAVAKMVEAAKGAAAHPDSEEQQQRLREAAEGLRMAINAAAQNAIKK
# Experiments:
# [1] = target: vinculin domain 1 (Vd1; residues 1–258) (chicken) (UniProt P12003); assay: SEC-MALS
# [2] = target: talin R2R3 double domain fragment (mouse); assay: SEC-MALS
# [3] = target: talin R2R3 double domain fragment (mouse); assay: ITC
# [4] = target: T1, vinculin domain 1 (Vd1; residues 1–258); assay: SEC
# [5] = target: T1, vinculin domain 1 (Vd1; residues 1–258); assay: SEC; remark: listed apart in the source
# [6] = target: B1; assay: NMR titration
# [7] = target: B2; assay: NMR titration
# [8] = target: B1; assay: ITC
# [9] = target: T1, vinculin domain 1 (Vd1; residues 1–258); assay: ITC
# talin R2R3 double domain fragment (mouse), sequence (P26039 whole entry, the tested form may be a part): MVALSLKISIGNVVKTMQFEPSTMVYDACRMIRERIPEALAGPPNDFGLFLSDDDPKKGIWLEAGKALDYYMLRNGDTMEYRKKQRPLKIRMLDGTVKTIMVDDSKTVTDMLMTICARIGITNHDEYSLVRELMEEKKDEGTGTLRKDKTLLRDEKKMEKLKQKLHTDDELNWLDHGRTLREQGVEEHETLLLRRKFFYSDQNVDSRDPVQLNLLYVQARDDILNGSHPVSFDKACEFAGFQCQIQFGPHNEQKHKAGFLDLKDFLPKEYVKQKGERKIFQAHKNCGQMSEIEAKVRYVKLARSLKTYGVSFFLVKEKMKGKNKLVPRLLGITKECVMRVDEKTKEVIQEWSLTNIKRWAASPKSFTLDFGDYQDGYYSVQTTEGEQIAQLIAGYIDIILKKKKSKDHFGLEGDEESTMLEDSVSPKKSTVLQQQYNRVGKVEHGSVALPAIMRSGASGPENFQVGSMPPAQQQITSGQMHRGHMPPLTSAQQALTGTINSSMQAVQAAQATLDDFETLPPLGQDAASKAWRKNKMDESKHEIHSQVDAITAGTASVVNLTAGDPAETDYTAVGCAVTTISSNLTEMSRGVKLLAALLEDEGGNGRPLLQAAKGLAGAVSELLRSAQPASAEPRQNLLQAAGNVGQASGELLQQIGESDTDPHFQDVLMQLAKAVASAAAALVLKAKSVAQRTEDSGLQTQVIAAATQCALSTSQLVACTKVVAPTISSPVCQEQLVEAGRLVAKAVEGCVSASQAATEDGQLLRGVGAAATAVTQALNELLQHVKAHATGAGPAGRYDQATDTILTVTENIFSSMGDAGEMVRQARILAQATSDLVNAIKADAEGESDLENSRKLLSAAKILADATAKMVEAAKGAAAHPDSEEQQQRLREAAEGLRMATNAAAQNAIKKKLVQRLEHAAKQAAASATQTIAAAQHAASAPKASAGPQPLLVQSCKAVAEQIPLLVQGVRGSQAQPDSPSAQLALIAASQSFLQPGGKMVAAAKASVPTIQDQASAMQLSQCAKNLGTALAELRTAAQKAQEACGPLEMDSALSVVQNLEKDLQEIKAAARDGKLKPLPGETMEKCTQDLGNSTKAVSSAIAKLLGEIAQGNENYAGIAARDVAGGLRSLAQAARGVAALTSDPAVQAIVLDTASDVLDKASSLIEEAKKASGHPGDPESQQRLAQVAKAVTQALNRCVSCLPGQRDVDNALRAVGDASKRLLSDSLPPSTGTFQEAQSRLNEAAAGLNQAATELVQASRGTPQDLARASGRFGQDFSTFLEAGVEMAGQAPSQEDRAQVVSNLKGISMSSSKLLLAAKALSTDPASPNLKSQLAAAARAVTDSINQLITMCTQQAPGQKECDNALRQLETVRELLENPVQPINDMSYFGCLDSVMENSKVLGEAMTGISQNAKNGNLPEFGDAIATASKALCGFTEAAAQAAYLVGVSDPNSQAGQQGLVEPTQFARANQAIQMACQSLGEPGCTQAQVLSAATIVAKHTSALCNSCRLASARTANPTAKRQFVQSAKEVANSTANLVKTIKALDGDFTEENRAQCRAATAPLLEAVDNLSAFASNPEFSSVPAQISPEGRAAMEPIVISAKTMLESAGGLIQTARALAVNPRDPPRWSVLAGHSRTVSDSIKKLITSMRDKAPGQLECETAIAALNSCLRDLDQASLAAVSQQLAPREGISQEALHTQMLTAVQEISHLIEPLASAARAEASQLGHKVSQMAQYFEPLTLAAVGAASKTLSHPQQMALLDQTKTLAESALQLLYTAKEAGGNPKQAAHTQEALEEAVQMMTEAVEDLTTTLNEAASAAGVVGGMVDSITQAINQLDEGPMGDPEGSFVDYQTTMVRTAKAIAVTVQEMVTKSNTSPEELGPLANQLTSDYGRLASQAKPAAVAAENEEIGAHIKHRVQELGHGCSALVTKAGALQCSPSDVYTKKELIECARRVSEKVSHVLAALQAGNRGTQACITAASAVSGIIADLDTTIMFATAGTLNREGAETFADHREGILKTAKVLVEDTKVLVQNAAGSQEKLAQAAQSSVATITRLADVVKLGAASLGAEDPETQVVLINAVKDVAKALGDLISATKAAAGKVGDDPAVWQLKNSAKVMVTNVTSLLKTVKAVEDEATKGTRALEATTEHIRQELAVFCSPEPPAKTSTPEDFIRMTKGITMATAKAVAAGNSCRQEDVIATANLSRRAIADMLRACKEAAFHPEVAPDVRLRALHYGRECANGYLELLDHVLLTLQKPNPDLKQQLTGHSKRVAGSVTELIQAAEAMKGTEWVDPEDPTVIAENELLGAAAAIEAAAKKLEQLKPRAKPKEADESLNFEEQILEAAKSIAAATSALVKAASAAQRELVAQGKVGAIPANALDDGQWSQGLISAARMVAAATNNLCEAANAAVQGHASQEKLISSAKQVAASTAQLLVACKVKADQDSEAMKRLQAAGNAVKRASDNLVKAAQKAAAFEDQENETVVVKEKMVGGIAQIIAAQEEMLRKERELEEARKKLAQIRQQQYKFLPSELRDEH
molecule,measurement,setting,value
talin R2R3 double domain fragment (domain or fragment),stoichiometry N,[1],4 Vd1 per R2R3
RIAM(1–127) (TBS1-TBS2) (domain or fragment) MGESNEDIDQMFSTLLGEMDLLTQSLGVDTLPPPDPNPPREEFNYTVGFKDLNESLNALEDQDLDALMADLVADISEAEQRTIQAQKESSQNQDRFALLRASDGQGTASGGYGASAAAIDVSHHEEA,stoichiometry N,[2],1
same,Kd,[3],2000 nM
B1,binding result,[4],binds
B2,binding result,[5],binds
"EDIDQMFSTLLGEMDLLTQSLGVDT [RIAM wild type peptide (6-30), TBS1]",binding result,[6],binds
same,binding result,[7],binds
"MGESNEDIDQMFSTLLGEMDLLTQSLGVDTLP (peptide, UniProt Q8R5A3 1-32, looked up) [RIAM(1–32) (TBS1)]",Kd,[8],36 µM
same,dH,[9],-1.5 kcal
"GEMVRQARILAQATSDLVNAIKADA (peptide, UniProt P26039 820-844, looked up) [talin VBS (residues 820–844) in talin R3]",Kd,[9],800 nM
same,dH,[9],-5.9 kcal
